Tested on: T1, Syntide-2, synthetic substrate peptide PLARTLSVAGLPGKK
T1 sequence: PLARTLSVAGLPGKK

Substance: Proteolytically cleaved Chk1, preparation HA2-022
- Activity: +38 fold
- Rate/min (/min (at 2 nM enzyme)): 0.0208
- activity comparison: the cleaved preparation was 38 fold more active than the non-cleaved preparation

Reference: US6670167
